Blank lines part the entries; values can stand above or below the molecule they belong to. Residues, ends and D or L forms follow the SMILES beside them. *: point of attachment. Cbz = O=C(OCc1ccccc1)*; CH2F = FC*
How the values were obtained:
[1] = system: caspase-1; test: IL-1β secretion assay in COS-7L cells (ELISA for mouse IL-1β); assay type: cell-based; conditions: for IL-1β production (caspase-1 activation): co-expression with caspase-1 and CARD-5 at low protein levels, FIG. 14B
Protocol: Experiments were next carried out using an IL-1β secretion assay to determine whether CARD-5 and PYRIN-8 induce activation of caspase-1. Active caspase-1 cleaves pro-IL-1β, resulting in the secretion of bioactive IL-1β from cells. In the IL-1β secretion assays, COS-7L cells (GIBCO) were co-transfected in 12-well (22-mm) plates using LipofectAMINE […] reagent (Invitrogen) with plasmids encoding mouse pro-IL-1β and indicated expression plasmids (total DNA=1.04 μg). Supernatants were collected 24 hours after transfection and subjected to ELISA for mouse IL-1β according to the manufacturer's protocol (R&D Systems).
The caspase-1 inhibitor Z-WEHD-FMK was added to cells following transfection at a final concentration of 100 μM.

[2] = molecular target: T1, CARD-5 (Homo sapiens, UniProt Q9ULZ3); test: Cellular co-localization (immunostaining) in 293T embryonic kidney cells; assay type: cell-based; conditions: 293T cells; FLAG-tagged PYRIN-8 construct co-expressed with HA-tagged CARD-5
T1 construct: expressed in transfected cells; host or cells: 293T
Protocol: Cellular co-localization studies were carried out to determine whether PYRIN-8 interacts with CARD-5 (also known as ASC) when the two proteins were overexpressed in 293T embryonic kidney cells. Plasmids expressing either full-length PYRIN-8 (PYRIN-8FL, residues 1-1061 of SEQ ID NO:18) or a PYRIN-8 truncation mutant lacking the PYRIN domain (PYRIN-8ΔPYRIN, residues 89-1061 of SEQ ID NO:18) with a C-terminal FLAG epitope were constructed using pCI (Promega). FLAG-tagged PYRIN-8 and HA-tagged CARD-5 were expressed in cells and detected using a mixture of anti-HA and anti-FLAG antibodies.
In immunostaining assays to detect cellular localization, 293T cells were transfected in poly-D-lysine-coated glass chamber slides (BioCoat, Becton-Dickinson Labware) with plasmids expressing HA-tagged CARD-5 and either FLAG-tagged PYRIN-8 or PYRIN-8ΔPYRIN using SuperFect transfection reagent (Qiagen). Cells were fixed 24 hours after transfection in 4% paraformaldehyde, permeabilized and blocked in a buffer containing 0.3% Triton X-100, and incubated with the following primary and secondary antibodies: rabbit anti-HA polyclonal Y-11 (Santa Cruz Biotechnology), mouse anti-FLAG monoclonal antibody M2 (Sigma), Alexa-350 goat anti-rabbit IgG (Molecular Probes), and Alexa-598 goat anti-mouse IgG (Molecular Probes). […]

T1 sequence (Q9ULZ3 whole entry): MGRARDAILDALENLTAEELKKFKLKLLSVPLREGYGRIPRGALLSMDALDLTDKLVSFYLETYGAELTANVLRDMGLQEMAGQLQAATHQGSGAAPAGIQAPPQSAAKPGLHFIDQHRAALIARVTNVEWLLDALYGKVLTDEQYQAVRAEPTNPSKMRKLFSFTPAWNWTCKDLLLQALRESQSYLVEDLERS

Molecule: COC(=O)CC[C@H](NC(=O)[C@H](Cc1c[nH]c2ccccc12)NC(=O)OCc1ccccc1)C(=O)N[C@@H](Cc1cnc[nH]1)C(=O)N[C@@H](CC(=O)OC)C(=O)CF [Z-WEHD, Z-WEHD-FMK, reference compound] (Cbz-WE(OMe)HD(OMe)-CH2F)
effect on IL-1β secretion induced by PYRIN-8 and CARD-5 ([1]; inhibitor added following transfection at a final concentration of 100 μM, FIG. 14C): blocked the ability of PYRIN-8 and CARD-5 to induce the secretion of IL-1β

B1: PYRIN-8ΔPYRIN: PYRIN-8 truncation mutant lacking the PYRIN domain, residues 89-1061 of SEQ ID NO:18 (protein, listed as Homo sapiens)
chain: GQREDLVRDTPPGGPSSLGNQSTCLLEVSLVTPRKDPQETYRDYVRRKFRLMEDRNARLGECVNLSHRYTRLLLVKEHSNPMQVQQQLLDTGRGHARTVGHQASPIKIETLFEPDEERPEPPRTVVMQGAAGIGKSMLAHKVMLDWADGKLFQGRFDYLFYINCREMNQSATECSMQDLIFSCWPEPSAPLQELIRVPERLLFIIDGFDELKPSFHDPQGPWCLCWEEKRPTELLLNSLIRKKLLPELSLLITTRPTALEKLHRLLEHPRHVEILGFSEAERKEYFYKYFHNAEQAGQVFNYVRDNEPLFTMCFVPLVCWVVCTCLQQQLEGGGLLRQTSRTTTAVYMLYLLSLMQPKPGAPRLQPPPNQRGLCSLAADGLWNQKILFEEQDLRKHGLDGEDVSAFLNMNIFQKDINCERYYSFIHLSFQEFFAAMYYILDEGEGGAGPDQDVTRLLTEYAFSERSFLALTSRFLFGLLNEETRSHLEKSLCWKVSPHIKMDLLQWIQSKAQSDGSTLQQGSLEFFSCLYEIQEEEFIQQALSHFQVIVVSNIASKMEHMVSSFCLKRCRSAQVLHLYGATYSADGEDRARCSAGAHTLLVQLPERTVLLDAYSEHLAAALCTNPNLIELSLYRNALGSRGVKLLCQGLRHPNCKLQNLRLKRCRISSSACEDLSAALIANKNLTRMDLSGNGVGFPGMMLLCEGLRHPQCRLQMIQLRKCQLESGACQEMASVLGTNPHLVELDLTGNALEDLGLRLLCQGLRHPVCRLRTLWLKICRLTAAACDELASTLSVNQSLRELDLSLNELGDLGVLLLCEGLRHPTCKLQTLRLGICRLGSAACEGLSVVLQANHNLRELDLSFNDLGDWGLWLLAEGLQHPACRLQKLWLDSCGLTAKACENLYFTLGINQTLTDLYLTNNALGDTGVRLLCKRLSHPGCKLRVLWLFGMDLNKMTHSRLAALRVTKPYLDIGC
IL-1β production (caspase-1 activation) [1]: eliminated the synergistic production of IL-1β
co-localization with CARD-5 punctate structures [2]: failed to associate with the CARD-5 punctate structures

co-localization with CARD-5 punctate structures [2]: co-localize with CARD-5
B2: PYRIN-8: full-length human PYRIN-8 protein, residues 1-1061 of SEQ ID NO:18, expressed from plasmid (protein, listed as Homo sapiens)
chain: MLRTAGRDGLCRLSTYLEELEAVELKKFKLYLGTATELGEGKIPWGSMEKAGPLEMAQLLITHFGPEEAWRLALSTFERINRKDLWERGQREDLVRDTPPGGPSSLGNQSTCLLEVSLVTPRKDPQETYRDYVRRKFRLMEDRNARLGECVNLSHRYTRLLLVKEHSNPMQVQQQLLDTGRGHARTVGHQASPIKIETLFEPDEERPEPPRTVVMQGAAGIGKSMLAHKVMLDWADGKLFQGRFDYLFYINCREMNQSATECSMQDLIFSCWPEPSAPLQELIRVPERLLFIIDGFDELKPSFHDPQGPWCLCWEEKRPTELLLNSLIRKKLLPELSLLITTRPTALEKLHRLLEHPRHVEILGFSEAERKEYFYKYFHNAEQAGQVFNYVRDNEPLFTMCFVPLVCWVVCTCLQQQLEGGGLLRQTSRTTTAVYMLYLLSLMQPKPGAPRLQPPPNQRGLCSLAADGLWNQKILFEEQDLRKHGLDGEDVSAFLNMNIFQKDINCERYYSFIHLSFQEFFAAMYYILDEGEGGAGPDQDVTRLLTEYAFSERSFLALTSRFLFGLLNEETRSHLEKSLCWKVSPHIKMDLLQWIQSKAQSDGSTLQQGSLEFFSCLYEIQEEEFIQQALSHFQVIVVSNIASKMEHMVSSFCLKRCRSAQVLHLYGATYSADGEDRARCSAGAHTLLVQLPERTVLLDAYSEHLAAALCTNPNLIELSLYRNALGSRGVKLLCQGLRHPNCKLQNLRLKRCRISSSACEDLSAALIANKNLTRMDLSGNGVGFPGMMLLCEGLRHPQCRLQMIQLRKCQLESGACQEMASVLGTNPHLVELDLTGNALEDLGLRLLCQGLRHPVCRLRTLWLKICRLTAAACDELASTLSVNQSLRELDLSLNELGDLGVLLLCEGLRHPTCKLQTLRLGICRLGSAACEGLSVVLQANHNLRELDLSFNDLGDWGLWLLAEGLQHPACRLQKLWLDSCGLTAKACENLYFTLGINQTLTDLYLTNNALGDTGVRLLCKRLSHPGCKLRVLWLFGMDLNKMTHSRLAALRVTKPYLDIGC
IL-1β production (caspase-1 activation) [1]: increase in IL-1β production

Source: patent publication US7648963B2, “Molecules of the PYRIN/NBS/LRR protein family and uses thereof” (Millennium Pharmaceuticals, Inc., priority 2001, dated 2010)
